Measurements taken from the supplement of paper PMC9170038.

Test system: K4 kissing-loop RNA reporter
Test: apparent KD of K4 kissing-loop reporter; higher = weaker reporter binding
Details: Eterna round: R107
Procedure: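 RNA-MaP round R107: designed RNA switches with theophylline, tryptophan, arginine or FMN aptamers are transcribed on-chip within common flanks. They are titrated with a labelled K4 kissing-loop RNA reporter in RNA-MaP buffer (100 mM Tris pH 7.5, 80 mM KCl, 4 mM MgCl2), without ligand or with the indicated ligand. Median apparent KD per design.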

[1] = input ligand: theophylline 20 uM
[2] = input ligand: tryptophan 2.4 mM
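Also: bound reporter read as fluorescence of individual clusters on recovered sequencing chips by microscopy, with normalized cluster intensities fitted with a binding model.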

Row | Sequence | apparent KD of K4 kissing-loop reporter (input ligand: FMN 200 uM) | apparent KD of K4 kissing-loop reporter (input ligand: arginine 13.2 mM) | apparent KD of K4 kissing-loop reporter (input ligand: none) | apparent KD of K4 kissing-loop reporter [1] | apparent KD of K4 kissing-loop reporter [2]
1 | AGAGUCAGACAAAAGUCUGGCUCAGCCGAAGGAGCGUCCGUAAGGACAGGUAGGUCGCGGCUAUUUGAGUGAUGUUUGGGUUCCU [KL-SSArg-A20] | 281 nM | 144 nM | 231 nM | 233 nM | 212 nM
2 | UUUAGGAACUGAGGAUAUUCGAAGAAAUAUAGUGAUGUUAUAUAAGGAGGAGGAGGGAGGGAGGAAGGAGAAGGCAGAAGAGGAG [ExFMNB.E] | 368 nM | 243 nM | 246 nM | 330 nM | 248 nM
3 | UGACUGGAUGGAAGGAGCGCUAAACUCCUAGUGAUGUUAGGGAUACGAGACAAAGUCUUGAAGCAGGUAGGUCGCCAUCUAGUCU [FiskerMod 10 - Jieux - Same State - Arginine B] | 170 nM | 124 nM | 144 nM | 144 nM | 138 nM
4 | AAGUGUGUGGCGGCCGCCACUAGAAUCCAGUGAUGUUGGAGAUAUCACGUAAGUGAUAUCCACCAUAGGACCGGGCCAUAUAGAA [Same State - Tryptophan B (Freestyle 13)] | 1300 nM | 758 nM | 559 nM | 428 nM | 483 nM
5 | UACUUAUAUAUCAACUUAAAUUAUUCAGAAGGAGCGUGAUCAUUCACAGGUAGGUCGCUGAACUAGUGAUGUUAGUUUUAAUUUU [JR_Nu_ExcArginiA_Sub023] | 67.9 nM | 146 nM | 81.3 nM | 126 nM | 61.5 nM
6 | UUUUUAUUCAGUGAUGUUGAAUUUAUAUCAGAGGAUAUGCAUAAAAGCAGAAGGCUGAAAUACUAUACUUUAAUAAAUUAUAUUU [JR_SSFMNA_Sub017] | 249 nM | 326 nM | 320 nM | 370 nM | 217 nM
7 | UGAUAGGACAGAAGGAGCGGGAGUGAUGUUCCCAAGGAUUGGUCUAGCAAAGCUGGACCCUCCCAGGUAGGUCGCUGUCCUAUCU [ArgBX 5 #SwitchBubble #StaticStem] | 195 nM | 223 nM | 222 nM | 182 nM | 191 nM
8 | GUUCGAUUCUGAGUGAUGUUGAGAAUUGAGAAGGAUAUCCAGAAAAGGAGAAGGUCUACGUCAUGCGCCUCGAUUUGCUAGCUGC [theeternabot_exclusion_KL_FMN_A_50] | 835 nM | 567 nM | 630 nM | 515 nM | 609 nM
9 | AGUAUAGAGUCGGCCGCCACUGGUUUUAUGUGUGUCAAAUCUGGAUCAAAGUGAUGUUUUGAGACUAGGACCGGGACCAUUGUUA [#06 K4 Tryptophan B Exclusion] | 160 nM | 139 nM | 145 nM | 131 nM | 206 nM
10 | AAACCAAUCAGAGGAUAUUCUUUAUUCGACAUAAAUUUCUAUAAAUUGCAGUGAUGUUGCAAUAUAGGAGAAGGCUGAUUGACAA [Exclusion FMN B Gf 12] | 239 nM | 199 nM | 204 nM | 229 nM | 223 nM
11 | CAAGGACGGCCGUAGGCAUACCGUCGAUUCAAGGAUAUCAAGAGAAUGAGAAGGUGAAGUUUAUACAGUGAUGUUGCUAUAGAGA [theeternabot_sameState_KL_FMN_A_6] | 133 nM | 122 nM | 168 nM | 195 nM | 152 nM
12 | CUUGAUGUGUCGGCCGCCACUGGUAUAGGCGGACUAUAACGACAUGAGUGAUGUUCAUGUUCGUCUAGGACCGGGACACAUUGUA [Tryp B SS t4] | 112 nM | 97.4 nM | 104 nM | 100 nM | 111 nM
13 | AUUUAAUUAACUGAUACCAGACUUUUUGUUUUGUAUAUUACUAGUGAUGUUAGUGUUUCUGUCCCUUGGCAGCAGUAUCUACUUA [JR_ExcTheophyB_Sub016] | 197 nM | 252 nM | 225 nM | 298 nM | 157 nM
14 | UGGAGUUGACGAAAAGUCAACUCCUGGGAAGGAGCGGACGAAAGUCCAGGUAGGUCGCCCACUACCAGUGAUGUUGGUACUUCAA | 241 nM | 274 nM | 271 nM | 254 nM | 209 nM
15 | CCGUGGCCGACGGCCGCCACUCUUACCAUCCAGCGGAGUGAUGUUCCGCCCGAGUGAUGUUCGGAGAGGACCGGGUCUGUUGUAA [Exclusion Tryptophan B GF30] | 117 nM | 103 nM | 108 nM | 89.1 nM | 98.9 nM
16 | AAAGAUGCGUCGGCCGCCACUGUUGCCAGUGAUGUUGGCAUGUAGAUGCAGUGAUGUUGCGUUUUCAGGACCGGGACGUAAGAUG [5th] | 261 nM | 253 nM | 302 nM | 246 nM | 134 nM
17 | AAGCAGUCACGCGAAGCCAUCGAAGAUGGACGAGGACCGGUACGGCCGCCACUCGGAGUGAUGUUCCGAAGACUGCAAAAUAAAA | 515 nM | 499 nM | 420 nM | 599 nM | 363 nM
18 | GGAUAGGAUAGAGGAUAUGGAAAACACAGAAAUGACUUGUUGUGUUUAUCCAUAGGGAGUGAUGUUCCAGAAGGCUGUCCUAUCG [MatMod 21 - Jieux - Exclusion - FMN B] | 289 nM | 184 nM | 194 nM | 198 nM | 158 nM
19 | UAACUCUUGCAGUGAUGUUGCAAGUAAGCUCAGGAUAUCAGGAAACUGAGAAGGGAGCAUCCUGAGCUUCUGCAAGAGCUCAGAA [KL-SSFMN-A4] | 254 nM | 152 nM | 184 nM | 217 nM | 189 nM
20 | AGCAAUAUCACGGCCGCCACUGAAUAUUGUUUUUAUAGUUAUAAAUCUUGCCAGUGAUGUUGGUUCAGGACCGGGUGAGUUAAUA [JR_SSTryptoB_Sub003] | 572 nM | 596 nM | 625 nM | 748 nM | 429 nM
21 | GGACUACUAUGUCCCAUACAAACAAGAGAUACCAGCCAUCAUAGAGGCCCUUGGCAGCUCAUAUAAUCCAGUGAUGUUGGAUUUC [Beveus] | 150 nM | 193 nM | 163 nM | 136 nM | 132 nM
22 | AAAAUAAAUAGCAGUCAUGGAGUGAUGUUCCGAGGACCGGUACGGCCGCCACUCGACCAUCAUAAGAUGGAAUGGCAAGACUGCA [#SwitchBubble 23 #K4Early] | 330 nM | 265 nM | 358 nM | 418 nM | 208 nM

Row | Sequence | apparent KD of K4 kissing-loop reporter (input ligand: FMN 200 uM) | apparent KD of K4 kissing-loop reporter (input ligand: arginine 13.2 mM) | apparent KD of K4 kissing-loop reporter (input ligand: none) | apparent KD of K4 kissing-loop reporter [1] | apparent KD of K4 kissing-loop reporter [2]
23 | UUUUUAUGCAGUGAUGUUGCUAAUAUAACAGAGGAUAUGCAUUAAUGCAGAAGGCUGAAAUACUAUACUUUAAUAUAUUAAAUUU [JR_SSFMNA_Sub015] | 94.3 nM | 132 nM | 126 nM | 155 nM | 99.5 nM
24 | UUCUCUCAGGCACGCGAGUGAUGUUCGCGGCGAGGACCGGUACGGCCGCCACUCGCGCCUGAGAGAGGUUAUCAAAGAUAGCCUU [whbob_SS_tryp_A] | 163 nM | 92.3 nM | 94.7 nM | 186 nM | 208 nM
25 | UGACUGGACUGAAGGAGCGCAAAACUCCUAGUGAUGUUAGGAAAACGAGACAAAGUCUCGAUGCAGGUAGGUCGCAGUCUAGUCU | 209 nM | 146 nM | 185 nM | 194 nM | 182 nM
26 | AUUUUGGUUGAAGGAUAUUCUCCCAUCGACGCGAUAAGAUACUUUGGAAGGUUUGCAGUGAUGUUGGAAGAAGGUCAAAGUUGUA [theeternabot_exclusion_KL_FMN_B_22] | 479 nM | 382 nM | 611 nM | 689 nM | 523 nM
27 | UGUAAGCGCGUAGAUACCAGCAGACGAGUGAUGUUCGAGAGAUUAAGGAAAAGAAAGUAAUGCCCUUGGCAGCUAAUCAUAAGCG [whbob_Ex_Theo_B_sa94] | 248 nM | 335 nM | 264 nM | 301 nM | 174 nM
28 | GCGCGCGGCGGAGGAUAUAGCCGGUGAUCCGAGAAAGUGAGUGAUGUUUACGGAGUUGAGGAUAUGUUAGAAGGCCGCCGCGCGC [abcdefghijklmnopqrstuvwx] | 339 nM | 751 nM | 1000 nM | 792 nM | 789 nM
29 | GCCAUCUACUAAGGAUAUUAAGUCAAUAUUUGUGGUGCCAUCUGUCGUUCAGGGCAGUGAUGUUGCUAAGAAGGUAGUCUGUCGG [theeternabot_exclusion_KL_FMN_B_39] | 757 nM | 441 nM | 636 nM | 593 nM | 407 nM
30 | CACGAUGAAUUCUCUAGGAGUGAUGUUUUUCGAGGACCGGUACGGCCGCCACUCGGACCAGGAGCGUGGUAGCGGCGAAAAGACU [zpmullin] | 769 nM | 256 nM | 545 nM | 523 nM | 484 nM
31 | AGUGACGAGUGAUGUUCGUGAACACUGGAUACCAGCAGUCUUAUCUGCCCUUGGCAGCCAACGGGAACCGAAUGUUAAGACCUGU [theeternabot_exclusion_KL_Theo_A_4] | 132 nM | 114 nM | 129 nM | 149 nM | 121 nM
32 | GGCACGUUCCCUUGAUCAGUGAUGUUGUUUCGAGGACCGGUACGGCCGCCACUCGCUCGGCGUUCGCCCAGGCCCGGAAAACUGC [theeternabot_exclusion_KL_Trp_A_13] | 241 nM | 207 nM | 224 nM | 217 nM | 225 nM
33 | AUGUUUUAUAAACUCAUGGUUUCGACAGAUACCAGCUUCGAGAGGAGCCCUUGGCAGCUGCAUGAGUGAUGUUCAUGUACGAAGA [KL-XTheoA7] | 374 nM | 356 nM | 465 nM | 415 nM | 265 nM
34 | CCAGAAUAAUGAAGAUGAUAAAUUACUGAAGGAGCGCAUAUAGUUGCAGGUAGGUCGCGGUGAAUAAGUAUAGUGAUGUUAUACC [SSArgA.Ad] | 261 nM | 209 nM | 256 nM | 260 nM | 255 nM
35 | UGAUUUAACUGAAGGAGCGGCAAUUGAUAAGUAAAUAUAGUGAUGUUAUAUAAGAUAGAGAGCCAGGUAGGUCGCAGAGGUAUUU [ExArgB.N] | 173 nM | 141 nM | 154 nM | 153 nM | 141 nM
36 | UUUAAAUAUAGUGAUGUUAUAUAACAAUGACGAGGACCGGUACGGCCGCCACUCGAGAGAGAUAAUGGUCUUACAAAUGUAAGUU [AstrosSSTryA#9] | 567 nM | 646 nM | 793 nM | 822 nM | 481 nM
37 | UGUGAUGUUGUGAUGUUUAGUGUUGUUGGGCAGGAUAUUGUAGAGGCGAGAAGGGCUAGUGUGAUGUAUGAGUGAUGUUUGUAGU [kkollmullin] | 127 nM | 111 nM | 246 nM | 177 nM | 186 nM
38 | UGUCAUUGGUCGGCCGCCACUAGGACCGGGUAUAACCUAGUGAUGUUAGUGAGUACGGCCGCCACUAGGACCGGGACCGAUGACU [KL-SSTryp-B120 #DoubleAptamer] | 531 nM | 319 nM | 857 nM | 572 nM | 91.9 nM
39 | CGAUGUUCCUGGGAUACCAGUCGGAGUCUCAGAGCUCGGAGUGAUGUUCUGGGAUGUUUCGGCCCUUGGCAGCUCUGGGACUCCC [#2 Exclusion - Theophylline B Attempt #23 (HarryS)] | 843 nM | 615 nM | 818 nM | 682 nM | 722 nM
40 | UAACCGCAGAAAGAUACCAGUGAGUGAUGUUCCUCGAUCCUGUGGUUCAUUCUCUUUACCCACCCUUGGCAGCUUCAAAUGUGAC [theeternabot_exclusion_KL_Theo_B_4] | 831 nM | 537 nM | 850 nM | 573 nM | 602 nM
41 | GGGAGAAGUGCGGCCGCCACUGAGAAAGAAGAAGAAUAUAGUGAUGUUAUAUAGGAAAGGAAGAACAGGACCGGGCAUAAGAGGG [SSTryptB.A] | 104 nM | 148 nM | 126 nM | 131 nM | 99.1 nM
42 | GCCGUCCGGUCGCAAGACCGGACAGCCGAUACCAGCGCGAAGGCGCGCCCUUGGCAGCGGCACCGAGUGAUGUUCGGUCAGGCGG [#2 Same State - Theophylline A Attempt #2 (HarryS)] | 179 nM | 148 nM | 173 nM | 128 nM | 166 nM
43 | CCUUCCCUUGAUAGUGAUGUUAUCAAGGACAAGGAUAUCAUCUCAAUGAGAAGGUGUCCUUGAUAACAUGGAGGUCUGAAACAGA [Omei KL FMN A Exc C v2] | 279 nM | 125 nM | 132 nM | 128 nM | 139 nM
